The record followed here is PMC8034648, “Oligomeric complexes formed by Redβ single strand annealing protein in its different DNA bound states”.

Data set [1] deals with Redβ single strand annealing protein from bacteriophage λ (bacteriophage λ) (UniProt P03698). Description: SEC-MALS; Redβ alone, no DNA; Superose 6 increase 3.2/300, PBS, 0.04 ml/min; loaded at 34, 67 and 101 μM, eluted at 6.0, 13.5 and 18.5 μM; weight-average mass; monomers to oligomer. (In general: In gel filtration, larger molecules generally elute earlier.)
Data set [2] has the same target. The experiment in a line: native MS; Redβ alone, no DNA, at 1 μM or greater (up to 30 μM); 50 mM ammonium acetate pH 7; monomers to 12-mer.
The target is the same in data set [3]. The description is as above. This is another data set of the same source.
Data set [4] has the same target. Description: SEC-MALS; Redβ with dT38 ssDNA (6 nt/monomer, 22°C, 30 min); Superose 6 increase, PBS; loaded at 34 μM; n assumes one copy of dT38.
For data set [5] the target is unchanged. Described as above. This is another data set of the same source.
Data set [6] has the same target. Description: SEC-MALS; Redβ with 83- ssDNA (6 nt/monomer, 22°C, 30 min); Superose 6 increase, PBS; loaded at 34 μM; n assumes one copy of the 83-mer.
Data set [7] has the same target. Description: native MS; 1 μM Redβ with two complementary strands added sequentially (83-:83+ or 83-:87+), annealed duplex; 50 mM ammonium acetate pH 7.
Data set [8] shares this target. The description is as above. This is another data set of the same source.
Data set [9] shares this target. Description: SEC-MALS; Redβ with 83- then 83+ added sequentially (annealed duplex); Superose 6 increase, PBS; loaded at 34 μM; n assumes one copy of 83-:83+.
Data set [10] has the same target. Description: SEC-MALS; Redβ with dT38 then dA38 added sequentially (annealed duplex, 4 nt/monomer each); Superose 6 increase, PBS; loaded at 34 μM; n assumes one copy of dT38:dA38.
Data set [11] has the same target. The experiment in a line: native MS; Redβ (0.1 to 30 μM) with two complementary 38-mers added sequentially (dT38:dA38; at 1 μM also 38NC1+:38NC1- and 38NC3+:40NC3-), annealed duplex; 50 mM ammonium acetate pH 7.
Data set [12] has the same target. The description is as above. This is another data set of the same source.
For data set [13], the target named is T1, Redβ single strand annealing protein (bacteriophage λ, UniProt P03698).
T1 sequence: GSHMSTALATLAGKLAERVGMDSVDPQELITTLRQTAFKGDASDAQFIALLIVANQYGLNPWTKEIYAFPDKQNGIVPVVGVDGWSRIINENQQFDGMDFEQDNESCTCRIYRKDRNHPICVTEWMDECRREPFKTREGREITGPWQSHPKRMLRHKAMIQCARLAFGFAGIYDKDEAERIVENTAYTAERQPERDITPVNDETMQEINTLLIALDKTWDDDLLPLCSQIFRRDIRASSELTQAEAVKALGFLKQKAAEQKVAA
The experiment in a line: native MS; 1 uM Redβ; 5-15 subunits, 1 or 2 DNA; EMSA: 10 uM Redβ, 50 uM nt DNA, 37 C, in PBS, or 20 mM Tris-HCl pH 7.5/10 mM NaCl/10 mM MgCl2, or 50 mM ammonium acetate pH 7.0; SEC-MALS: PBS, complexes formed. Conditions: protein: recombinant; tags: N-terminal GSH left after thrombin removal of 6xHis; chain copies: 11.

Data set [14] concerns the target T1, Redβ single strand annealing protein. The experiment in a line: native MS; strands added sequentially, 1 uM Redβ; 11 subunits; EMSA: 10 uM Redβ, 50 uM nt DNA, 37 C, in PBS, or 20 mM Tris-HCl pH 7.5/10 mM NaCl/10 mM MgCl2, or 50 mM ammonium acetate pH 7.0; SEC-MALS: PBS, complexes formed. Conditions: protein: recombinant, tags: N-terminal GSH left after thrombin removal of 6xHis, chain copies: 11.

Data set [15] shares this target. The experiment in a line: EMSA; strands added sequentially, PBS; EMSA: 10 uM Redβ, 50 uM nt DNA, 37 C, in PBS, or 20 mM Tris-HCl pH 7.5/10 mM NaCl/10 mM MgCl2, or 50 mM ammonium acetate pH 7.0; SEC-MALS: PBS, complexes formed. Conditions: protein: recombinant; tags: N-terminal GSH left after thrombin removal of 6xHis; chain copies: 11; label: 5'-Cy5, 5'-Cy3; blunt.

For data set [16] the target is unchanged. The experiment in a line: native MS; 1 uM Redβ and higher; 8-13 subunits; EMSA: 10 uM Redβ, 50 uM nt DNA, 37 C, in PBS, or 20 mM Tris-HCl pH 7.5/10 mM NaCl/10 mM MgCl2, or 50 mM ammonium acetate pH 7.0; SEC-MALS: PBS, complexes formed. Conditions: protein: recombinant; tags: N-terminal GSH left after thrombin removal of 6xHis; chain copies: 11. In general terms: In EMSA bound probe runs differently from free probe, usually more slowly.

For data set [17] the target is unchanged. The experiment in a line: SEC-MALS; PBS; 427 kDa, n=14.0; EMSA: 10 uM Redβ, 50 uM nt DNA, 37 C, in PBS, or 20 mM Tris-HCl pH 7.5/10 mM NaCl/10 mM MgCl2, or 50 mM ammonium acetate pH 7.0; SEC-MALS: PBS, complexes formed. Conditions: protein: recombinant; tags: N-terminal GSH left after thrombin removal of 6xHis; chain copies: 11.
For data set [18] the target is unchanged. Description: EMSA; PBS, ssDNA alone; EMSA: 10 uM Redβ, 50 uM nt DNA, 37 C, in PBS, or 20 mM Tris-HCl pH 7.5/10 mM NaCl/10 mM MgCl2, or 50 mM ammonium acetate pH 7.0; SEC-MALS: PBS, complexes formed. Conditions: protein: recombinant, tags: N-terminal GSH left after thrombin removal of 6xHis, chain copies: 11.
Data set [19] has the same target. The experiment in a line: EMSA; added first, then noncomplementary Cy5 50mer; unusually high affinity; EMSA: 10 uM Redβ, 50 uM nt DNA, 37 C, in PBS, or 20 mM Tris-HCl pH 7.5/10 mM NaCl/10 mM MgCl2, or 50 mM ammonium acetate pH 7.0; SEC-MALS: PBS, complexes formed. Conditions: protein: recombinant; tags: N-terminal GSH left after thrombin removal of 6xHis; chain copies: 11; label: 5'-Cy3.

Where “and” joins values, the source holds several entries; their conditions need not be identical. Identical values can stand only once.

In data set [1], “Redβ single strand annealing protein from bacteriophage λ (from UniProt P03698 1-261)” came in with a stoichiometry N of 7.7 subunits.

Take “Redβ single strand annealing protein from bacteriophage λ (from UniProt P03698 1-261) (natural protein)”: the stoichiometry N in data set [2] is 12 subunits; in data set [3] it was 1 to 14 subunits; in data set [4] it was 14 subunits; in data set [5] it was 14.1 subunits; in data set [6], 21.1 subunits; in [7], 22 subunits. Besides, the stoichiometry N in data set [8] is 21 subunits and 23 subunits; in data set [9], 18.2 subunits; in data set [10], 11.3 subunits; in data set [1], 8.6 subunits and 9.1 subunits; in data set [11] it was 11 subunits; in data set [12], 9 subunits and 10 subunits. This molecule came in with a midpoint of the transition from monomer to 12-mer in data set [3] of 1 µM.

As to AGACACAGTAAACGGACGCTAGATGCAACGAGATCCGA (ssDNA) [38NC1+], in [13], the binding result was “binds”.

B1: 38NC1+:38NC1- (dsDNA)
DNA 1: AGACACAGTAAACGGACGCTAGATGCAACGAGATCCGA
DNA 2: TCGGATCTCGTTGCATCTAGCGTCCGTTTACTGTGTCT
Take B1: the binding result in data set [14] (blunt) was “binds”.

B2: 24mer annealed duplex (dsDNA)
DNA 1: AAAATCGAGCTATGCAGGGCGATT
DNA 2: AATCGCCCTGCATAGCTCGATTTT
As for B2, the binding result in [15] is given as “binds”.

On to AAAAAAAAAAAAAAAAAAAAAAAAAAAAAAAAAAAAAA (ssDNA) [dA38], for which, in [16], the binding result is “binds”.

With GACGCACAATGACAGATAACACAATGGCGAGATAACGC (ssDNA) [38NC3+], the binding result in data set [13] is “binds”.

B3: 38NC3+:40NC3- (dsDNA)
DNA 1: GACGCACAATGACAGATAACACAATGGCGAGATAACGC
DNA 2: GCGTTATCTCGCCATTGTGTTATCTGTCATTGTGCGTCGC
As to B3, the binding result in data set [14] (3' overhang 2 nt on strand 2) is on record as “binds”.

Turning to TTTTTTTTTTTTTTTTTTTTTTTTTTTTTTTTTTTTTT (ssDNA) [dT38], in data set [17], the binding result was “binds”.

B4: 20mer annealed duplex (dsDNA)
DNA 1: AAAATCGAGCTATGCAGGGC
DNA 2: GCCCTGCATAGCTCGATTTT
On to B4, for which the binding result in data set [15] is reported as “binds”.

For GCCCTGCATAGCTCGATTTT (ssDNA) [Cy3 20mer], the binding result in [18] (label: 5'-Cy3) was “no binding”.

For GCGTTATCTCGCCATTGTGTTATCTGTCATTGTGCGTCGC (ssDNA) [40NC3-], the binding result in data set [13] is “binds”.

Regarding GCAGAATCGCCCTGCATAGCTCGATTTT (ssDNA) [Cy3 28mer], in [18] (label: 5'-Cy3), the binding result is “no binding”.

As to AAAATCGAGCTATGCAGGGCGATT (ssDNA) [Cy5 24mer], in data set [18] (label: 5'-Cy5), the binding result is “no binding”.

Consider AAAATCGAGCTATGCAGGGC (ssDNA) [Cy5 20mer], for which the binding result in [18] (label: 5'-Cy5) is “no binding”.

For TGCATAGCTCGATTTT (ssDNA) [Cy3 16mer], the binding result in [18] (label: 5'-Cy3) is “no binding”.

Take GAGTGATAGGCATATGTGCTACGAGTATCGAAGGAACGGTCACTACGCAA (ssDNA) [Cy3 NC 50mer]: the binding result in data set [19] is listed as “binds”.

B5: 28mer annealed duplex (dsDNA)
DNA 1: AAAATCGAGCTATGCAGGGCGATTCTGC
DNA 2: GCAGAATCGCCCTGCATAGCTCGATTTT
For B5, in data set [15], the binding result is “binds”.

With AATCGCCCTGCATAGCTCGATTTT (ssDNA) [Cy3 24mer], in data set [18] (label: 5'-Cy3), the binding result is “no binding”.

For the molecule TCGGATCTCGTTGCATCTAGCGTCCGTTTACTGTGTCT (ssDNA) [38NC1-], the binding result in data set [13] is on record as “binds”.

Consider AAAATCGAGCTATGCAGGGCGATTCTGC (ssDNA) [Cy5 28mer], for which the binding result in data set [18] (label: 5'-Cy5) was “no binding”.

For AAAATCGAGCTATGCA (ssDNA) [Cy5 16mer], the binding result in data set [18] (label: 5'-Cy5) is “no binding”.

What is called stoichiometry N is a count of units in the complex or per binding partner.
